# Source: EP2620453B1
# Tests used:
# [1] = biological target: Stx1 (type-I Shiga toxin, recombinant holotoxin) (EHEC O157:H7) (UniProt P08026); assay: ELISA, plates coated with Stx1, serum titer
# [2] = biological target: Stx2 (type-II Shiga toxin, recombinant holotoxin) (EHEC O157:H7) (UniProt P09386); assay: ELISA, plates coated with Stx2, serum titer
substance,measurement,setting,value
serum of the placebo control PBS group (BALB/c mice) (antibody),titer of serum IgA and IgG,[1],< 2
same,titer of serum IgA and IgG,[2],< 2
